A short description of this data set: yeast display, Sf9 membrane polyspecificity reagent, FACS + sequencing; frameworks hold sequencing errors. A digest of the protocol:
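Polyreactivity labels are assigned by the sorting gate from which each nanobody was recovered. The gates were low and high (top ~1%), set on anti-HA fluorescence for expression and streptavidin fluorescence for reagent binding. Before sorting, galactose-induced (36–48 hours) yeast display cells were stained for 1 hour at 4 °C with 10% biotinylated, detergent-solubilized Sf9 membrane reagent.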
As to “QVQLVESGGGLVQAGGSLRLSCAASGRIFAQNAMGWYRQAPRNERELVAGISYGGGRTYYADSVKGRFTISRDKAKNTVYLQMNSLKPEDTAVYYCAKAVNSPRKYQLGNGYWGQGTQVTVSS”, the “polyreactivity (PSR sort gate)” value is listed as “high polyreactivity”. On to “QVQLVESGGGLVQAGGSLRLSCAASGGTFSRNAMGWYRQAPGKERELVAAITWSGTRTYYADSVKGRFTISRDNAKNTVYLQMNSLKPEDTAVYYCATKGRRSADDTLLDYWGQGTQVTVSS”, for which the “polyreactivity (PSR sort gate)” value was “high polyreactivity”.

Turning to “QVQLVESVGGLVQAGGSLRLSCAASGSIFVNNAMGWYRQAPGKERELVAAISSRSSRTFYADSVKGRFTISRDNAKNTVYLQINSLKPEDTAVYYCNAVGGRKFGEYDYWGQGTQVTVSS”, the “polyreactivity (PSR sort gate)” value is “high polyreactivity”.

In the case of “QVQLVESGGGLVQAGGSLRLSFAATGRICSPYAMGWYRQAPGKERELVAAISYDDGITYYADSVKGRFTISRDNATNTVYLQMNSLTPEDTAVYYCAADSVTRPAGDYWGQGTQVTVSS”, the “polyreactivity (PSR sort gate)” value is “low polyreactivity”. In the case of “QVQLEESGGGLVQAGGSLRLSCAASVSTFRLYVMGGYRQAPGKERQLVAAIDWSGGSTYYADSVKGRFTISRDNAKNTVYLQMNSLKPEDTAVYYCAADYSVASPDGPDVIYDYWGQGTQVTVSS”, the “polyreactivity (PSR sort gate)” value is listed as “low polyreactivity”. With “QVQLVESGGGLVQAGGSLRLSCAASGRTFCYYTMVWYRQAPGKEREMVASISRVTSTYYADSVKGRFTISRDNAKNTVDLQMNSVKPEDTAVYYCAADRTRYYVGYRWTGNKMVYWGQGTQVTLSS” the entry was “low polyreactivity”; with “QVQLVESGGGLVQAGGSLRLSCAASGSTIRYYAMGWYRQAPGKERELVAAITSSGTSTYYADSVKGRFTISRDNAKNTVDLQMNRLKPEDTAVYYCAARPVYKWVSSRYDYWGQGTQVTVSS”, “low polyreactivity”.

With “QVQLVESGGGLVQAGGSLRLSCAASGSTFQWNTMGWYRQAPGKERELVARITGGGGSTYYADSVKGRFTISRDNAKNTVYLQMNSLKPEDTAVYYCNAAIFGRYEYWGQGTQVTVSS”, the “polyreactivity (PSR sort gate)” value is listed as “low polyreactivity”. On to “QVQLVESGGGLVQAGGSLRLSCAASGSIFYRYAMGWYRQAPGKERELVAAINDSGGGTYYADSVKGRFTISRDNAKNTVYLQMNSLKPEDTAVYYCAAATHNKHTARDDYWGQGTQVTVSS”, for which the “polyreactivity (PSR sort gate)” value was “low polyreactivity”.

As to “QVPLVESGGGLVQAGGSLRLSCAASGSIFQLYAMGWYRQAPGKEREFVAAITRSGGRTYYADSVKGRFTISRDNAKNTVYIQMNSLKPEDTAVYYCAADWVRNVYYRGYDYWGQGPQVTVSS”, the “polyreactivity (PSR sort gate)” value is given as “high polyreactivity”. For the sequence “QVQLVESGGGLVQAGGSLRLSCAASGSIFEGYVMGWYRQEPGKERELVATISFSGGSTYYADSVKGRFTISRDNAKTTVYLQMNSLKPEDTAVYYCNALVYHTKGDYGYWGQGTQVTVSS”, the “polyreactivity (PSR sort gate)” value is listed as “low polyreactivity”.

On to “QVQLQESGGGLVQAGGSLRLSCAASGSIFLLHIMCWYRQAPGKERESVAAISYGTSTYYADSVNGRFTICRDNAKNTVYLQMNSPKPDDTAVYYCAALFLVSKHHHFWGEGTQVTVSS”, for which the “polyreactivity (PSR sort gate)” value is recorded as “low polyreactivity”. In the case of “QVQLVESGGGLVQAGGSLRLSCAASGSTFSKNTMGWYRQAPGKERELVAAITGTGDSTYYADSVKGRFTISRDNAKYPVYLQMNSLKPEDTAVYYCAADAYSLCYESWGQGTKVTVSS”, the “polyreactivity (PSR sort gate)” value is “low polyreactivity”. With “QVQLVESGGGLVQAGGSLRLSCAASGIIFYRYAMGWYRQAPGKERELVAVISRSGCSTYYADSVKGRFTISRDNAKNTVYLQMNSLKPEDTAVYYSAAGRRYDGTRHDYWGQGTQVTVSS”, the “polyreactivity (PSR sort gate)” value is “high polyreactivity”. The result for “QVQLVESGGGLVQAGGSLRLSCAASGSTLKYNAMGWYRQATGKERELVAAISTSGGNTYYADSVKGRFTISRDNAKNTVYLQMNSLKPEDPAVYYFAKVLGYYYYDYDSWGQGTQVTLSS” reads “low polyreactivity”.

For “QVQLVESGGGLVQAGGSLRLSCAASGSIIGRNAMGWYRQAPGKERELVAAISTRGGRTYYADSVKGRFTISRDNAKNTVYLQMNSLKPEDTAVYYCADTYQYLKSGYYWGQGTQVTVSS”, the “polyreactivity (PSR sort gate)” value is “high polyreactivity”. Turning to “QVQLVESGGGLVQAGGSLRLSCADSGFTFGRYAMRWYRQATGKERELVAAISRGGSYTYYADSVKGRLTISRDNAQNTVFLQMNSLKPEDTAVYYCNIVIIWARFDYWRQGTQVTVSS”, the “polyreactivity (PSR sort gate)” value is “high polyreactivity”.

Take “QVQLVESGGGLVQAGGSLRLSCAASGSTLWSNTMGWYRQAPGKERELVDAISSGGGSTYADSVKGRFTISRDNAKNTVYLQMNSLKPEDTAVYYCAASAYYYRHSSWHRRDYWGQGTQVTVSS”: the “polyreactivity (PSR sort gate)” value is on record as “high polyreactivity”. With “QVQLVESGAGLVQAGGSLRLSCAASGSSSLYNAMGWYRQAPGKERELVAAISSGGSTNYADSVKGRFTISRENAKNNVYLQMNSLQPEDTAVYYCAAVTVRRVSCAQYKQYDYWGLGTQVTVSS”, the “polyreactivity (PSR sort gate)” value is on record as “high polyreactivity”. “QVQLVESGGGLVQAGGSLRLSCAASGSTLDVYAMGWYRQAPGKERELVAAISWSVGSTYYAYSVKGRFKISRDNAKNTVYLQINRLKPEDTAVYNCAAEQYEYAYDGYDYWGQGTQVTVSS”: the “polyreactivity (PSR sort gate)” value was “high polyreactivity”. In the case of “QVQLVESGGGLVQAGGSLRLSCAASGYIFQPYAMGWYRQAPGKERELVAAISWRGGTTYYADSVKGRFTISRDNAKITVYLQMNSLKPEDTAVYDCAKDYYYGLDHYGYWGQGTQVTVSS”, the “polyreactivity (PSR sort gate)” value is recorded as “low polyreactivity”.

“QDQHGESGGGLVQAGGRLRLSGAASGSTFPGNAMGWYRQAPGKERELVAAITSGGRTYYADSVKGRFTISRDNAKNTVYLQMNSLKPEDTAVYYCAVSTPIQRHGETYAKFDYWGQGTQVTVSS”: the “polyreactivity (PSR sort gate)” value is recorded as “low polyreactivity”. Consider “QVQLVESGGGLVQAGGSLRLSCAASGFTFRYYAMGWYRQAHGKERELVASITGGGRTYYADSVKGRFTISRDNAKNTVYLQMNSLKPEDTAVYYCATLLAYRLGSGYDSWGQGTQVTVSS”, for which the “polyreactivity (PSR sort gate)” value was “high polyreactivity”.

As for “QVQLLESGGGLVQAGGSLRISCASSVRISPRYAMGWYRQAPGKERELVAAIDTSDGTTYYADSVKGRFTISRDNAMKTVYFQMNSLKPEDTAVYYCAAEGQLFDLYDYWGHGTQVTVSS”, the “polyreactivity (PSR sort gate)” value is reported as “low polyreactivity”. With “QVQLVESGGGLVQAGGSLRLSCAASGSIFYIYAMGWYRQAPGKEREFVAAISWIGGSTYYADSVKGRFTISRDNAKNTVYLQMNSLKPEDTAVYYCAAETFTDYDYWGQGTQVTVSS”, the “polyreactivity (PSR sort gate)” value is “high polyreactivity”.

Regarding “QVQLVESGGGLVQAGGSLRLSCAASAAIFTKNAMGWYRQAPAKERELVAAITGSGASTYYADSVKGRFTISRDNAKNTVYLQMNSLKPEDTAVYYCNTDSPYGWEGEFDYWGQGTQVTVSS”, the “polyreactivity (PSR sort gate)” value is given as “high polyreactivity”.

As for “QVQLVESGGGLVQAGGSLRLSCAASGFTFRYYAMGWYRQAPGKERELVAAISAGGGSTYYADSVKGRFTISRDNAKNTVYLQMNSLKPEDTAGYYCAAAGARPGYDYWGQGTQVTVSS”, the “polyreactivity (PSR sort gate)” value is reported as “high polyreactivity”. With “QVQLVESGGGLVQAGGSLRLSCAASGLTFKYYAMGWYRQAPGKESELVAAITSTGGRTYYADSVKGRFTISRDNAKNTVYLQMNSLKPEDTAVYYCAAYYVGSSKYDSWGQGTQVTVSS” the entry was “low polyreactivity”; with “QVQLVESGGGLVQAGGSLRLSCAASGFIFSSYAMGWYRQAPGKERELVAAISRSGGRTNYADSVKGRFTISRDNAKNTVYLQMNSLKPEDTAVYYCNADRKYWSLWGPAYDYWGHGTQVTVSS”, “high polyreactivity”. As to “QVQLVESGGGLVQAGGSLRLSCAASGYIFYYYAMGWYRQAPGKESELVAAISSTVSTNYADSVKGRFTISRDNAKNTVYLQMNSLKPEDSAVYYCAAAQRVNHVWYDYWGQGTQVTVSS”, the “polyreactivity (PSR sort gate)” value is listed as “low polyreactivity”.

The values above are taken from the nanobody polyreactivity screen of Harvey et al. (2022).
